# Source: IntAct's records for PubMed 22151054
# B1: Myeloid leukemia factor 1 (Homo sapiens), P58340 (parent)
# chain: MFRMLNSSFEDDPFFSESILAHRENMRQMIRSFSEPFGRDLLSISDGRGRAHNRRGHNDGEDSLTHTDVSSFQTMDQMVSNMRNYMQKLERNFGQLSVDPNGHSFCSSSVMTYSKIGDEPPKVFQASTQTRRAPGGIKETRKAMRDSDSGLEKMAIGHHIHDRAHVIKKSKNKKTGDEEVNQEFINMNESDAHAFDEEWQSEVLKYKPGRHNLGNTRMRSVGHENPGSRELKRREKPQQSPAIEHGRRSNVLGDKLHIKGSSVKSNKK
# Variants of: B1
# Details: with 1433e_human YWHAE
row,Variant,effect of a mutation on the interaction
1,F33A,decreasing interaction
